From doi:10.1101/2024.06.25.600625 (bioRxiv, 2024)

T1: N-terminally FlAsH-labeled CDC37 (UniProt Q16543 1-378, FlAsH-EDT2 label on the N-terminal tetra-cysteine tag)
T1 sequence: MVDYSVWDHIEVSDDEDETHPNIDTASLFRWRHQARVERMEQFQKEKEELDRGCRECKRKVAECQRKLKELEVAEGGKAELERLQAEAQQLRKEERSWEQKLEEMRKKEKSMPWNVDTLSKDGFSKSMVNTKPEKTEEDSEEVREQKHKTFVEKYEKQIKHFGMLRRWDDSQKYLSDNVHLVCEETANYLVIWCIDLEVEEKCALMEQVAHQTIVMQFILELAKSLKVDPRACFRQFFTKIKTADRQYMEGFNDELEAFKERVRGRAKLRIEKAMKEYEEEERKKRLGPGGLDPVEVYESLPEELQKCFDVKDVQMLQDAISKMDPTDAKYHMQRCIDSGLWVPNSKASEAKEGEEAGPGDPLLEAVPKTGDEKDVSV

B1: C-terminally FlAsH-labeled p23 (natural protein)
chain: MQPASAKWYDRRDYVFIEFCVEDSKDVNVNFEKSKLTFSCLGGSDNFKHLNEIDLFHCIDPNDSKHKRTDRSILCCLRKGESGQSWPRLTKERAKLNWLSVDFNNWKDWEDDSDEDMSNFDRFSEMMNNMGGDEDVDLPEVDGADDDSQDSDDEKMPDLE
modifications: FlAsH-EDT2 label on the C-terminal tetra-cysteine tag
B2: unlabeled p23 (natural protein)
chain: B1 chain
B3: human Hsp90α Y38E (natural protein)
chain: not shown
B4: human Hsp90α Y38F,Y61E,Y197E (natural protein)
chain: not shown
B5: human Hsp90α Y38F,Y61F,Y197E (natural protein)
chain: not shown
B6: human Hsp90α Y38E,Y61F,Y197E (natural protein)
chain: not shown

How the values were obtained:
Assay in all cases: fluorescence polarisation
[1] = molecular target: B4
[2] = molecular target: human Hsp90α Y38F (human, UniProt P07900 1-732, Y38F)
[3] = molecular target: human Hsp90α Y61E (human, UniProt P07900 1-732, Y61E)
[4] = molecular target: B6
[5] = molecular target: human Hsp90α Y38F,Y61F,Y197F (human, UniProt P07900 1-732, Y38F | Y61F | Y197F)
[6] = molecular target: human Hsp90α Y61F (human, UniProt P07900 1-732, Y61F)
[7] = molecular target: human Hsp90α Y197F (human, UniProt P07900 1-732, Y197F)
[8] = molecular target: B5
[9] = molecular target: wild-type human Hsp90α (human, UniProt P07900 1-732)
[10] = molecular target: human Hsp90α Y197E (human, UniProt P07900 1-732, Y197E)
[11] = molecular target: B1
[12] = molecular target: T1, N-terminally FlAsH-labeled CDC37

B1: binds [1]; binds [2]; binds [3]. B1: binds [4]; binds [5]; binds [6]. B1: binds [7]; binds [8]; binds [9]. B1: binds [10].

B2: binds [9].

With B3 the “fold increase of KD (reference not named, wild type implied)” value [11] was 3.5 fold.

B4 was tested, and the “fold increase of KD against all other Hsp90 variants” value [12] was 2 fold.

In the case of B5, the “fold increase of KD against all other Hsp90 variants” value [12] is reported as 2 fold.

With B6 the “fold increase of KD against all other Hsp90 variants” value [12] was 2 fold.
